Experimental data from patent US20140348785A1 (US Dept. of Health and Human Services, published 2014).

Key:
[1] = biological target: full MPER peptide (ELISA; gp41 residues 656-683 with lysine triplicates) (HIV-1); assay: ELISA, peptide coated at 2 ug/ml
[2] = biological target: 4E10-specific MPER peptide (gp41 residues 671-683) (HIV-1); assay: ELISA, peptide coated at 2 ug/ml
[3] = biological target: Z13e1-specific peptide (gp41 residues 666-677) (HIV-1); assay: ELISA, peptide coated at 2 ug/ml
[4] = biological target: T1, Sjogren's syndrome antigen B (UniProt P05455 1-408); assay: Luminex AtheNA Multi-Lyte ANA bead assay
T1 construct: Commercial bead antigen; also called SSB; SS-B/La
T1 sequence: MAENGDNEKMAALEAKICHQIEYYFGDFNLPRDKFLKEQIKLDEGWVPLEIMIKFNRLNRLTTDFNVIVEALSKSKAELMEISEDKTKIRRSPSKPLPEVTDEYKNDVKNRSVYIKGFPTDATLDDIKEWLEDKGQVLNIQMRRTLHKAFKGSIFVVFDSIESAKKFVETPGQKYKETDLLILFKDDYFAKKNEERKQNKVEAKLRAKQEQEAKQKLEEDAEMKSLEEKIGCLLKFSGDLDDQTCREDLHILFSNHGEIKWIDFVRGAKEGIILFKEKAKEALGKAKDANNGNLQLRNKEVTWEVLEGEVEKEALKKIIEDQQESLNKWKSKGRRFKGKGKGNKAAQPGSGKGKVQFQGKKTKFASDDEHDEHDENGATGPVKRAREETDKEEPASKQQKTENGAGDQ

Jo1 antigen = biological target: T2, Jo1 antigen (UniProt P12081 2-509); assay: Luminex AtheNA Multi-Lyte ANA bead assay
T2 construct: Commercial bead antigen
T2 sequence: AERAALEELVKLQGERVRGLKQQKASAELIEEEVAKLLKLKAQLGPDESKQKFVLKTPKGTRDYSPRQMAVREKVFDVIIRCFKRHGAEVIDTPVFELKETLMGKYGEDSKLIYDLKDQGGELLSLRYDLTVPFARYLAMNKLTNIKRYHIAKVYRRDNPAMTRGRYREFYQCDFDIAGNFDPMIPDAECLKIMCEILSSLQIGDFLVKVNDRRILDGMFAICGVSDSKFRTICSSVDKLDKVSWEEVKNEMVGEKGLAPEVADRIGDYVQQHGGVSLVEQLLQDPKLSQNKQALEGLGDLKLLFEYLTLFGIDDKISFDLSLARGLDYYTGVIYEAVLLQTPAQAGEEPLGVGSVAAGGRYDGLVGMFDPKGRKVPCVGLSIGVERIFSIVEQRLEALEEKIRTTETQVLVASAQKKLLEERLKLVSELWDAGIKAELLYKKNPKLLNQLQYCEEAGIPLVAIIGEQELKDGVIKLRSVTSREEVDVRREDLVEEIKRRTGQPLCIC

scleroderma 70 antigen = biological target: T3, scleroderma 70 antigen (UniProt P11387 2-765); assay: Luminex AtheNA Multi-Lyte ANA bead assay
T3 construct: Commercial bead antigen; also called Scl 70; Sc1 70
T3 sequence: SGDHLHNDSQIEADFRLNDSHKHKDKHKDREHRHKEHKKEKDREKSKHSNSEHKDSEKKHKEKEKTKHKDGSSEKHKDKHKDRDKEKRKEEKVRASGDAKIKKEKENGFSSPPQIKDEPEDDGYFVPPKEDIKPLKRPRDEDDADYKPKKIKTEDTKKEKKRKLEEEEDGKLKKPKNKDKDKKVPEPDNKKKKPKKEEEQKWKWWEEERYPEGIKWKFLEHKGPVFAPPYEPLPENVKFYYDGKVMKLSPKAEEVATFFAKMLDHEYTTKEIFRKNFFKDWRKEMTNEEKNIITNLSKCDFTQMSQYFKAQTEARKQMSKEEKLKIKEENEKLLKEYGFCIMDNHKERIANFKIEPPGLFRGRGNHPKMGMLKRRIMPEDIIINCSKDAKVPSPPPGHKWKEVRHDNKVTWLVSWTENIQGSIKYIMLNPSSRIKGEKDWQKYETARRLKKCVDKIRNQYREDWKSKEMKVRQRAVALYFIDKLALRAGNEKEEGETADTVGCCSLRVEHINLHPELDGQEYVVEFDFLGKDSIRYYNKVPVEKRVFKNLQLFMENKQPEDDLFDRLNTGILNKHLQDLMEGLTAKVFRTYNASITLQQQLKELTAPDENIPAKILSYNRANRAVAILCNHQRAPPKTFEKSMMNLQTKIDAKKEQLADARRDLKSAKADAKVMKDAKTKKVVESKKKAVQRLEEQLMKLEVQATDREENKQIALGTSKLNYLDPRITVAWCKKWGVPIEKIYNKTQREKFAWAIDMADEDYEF

centromere B = biological target: T4, centromere B (UniProt P07199 2-599); assay: Luminex AtheNA Multi-Lyte ANA bead assay
T4 construct: Commercial bead antigen; also called CentrB
T4 sequence: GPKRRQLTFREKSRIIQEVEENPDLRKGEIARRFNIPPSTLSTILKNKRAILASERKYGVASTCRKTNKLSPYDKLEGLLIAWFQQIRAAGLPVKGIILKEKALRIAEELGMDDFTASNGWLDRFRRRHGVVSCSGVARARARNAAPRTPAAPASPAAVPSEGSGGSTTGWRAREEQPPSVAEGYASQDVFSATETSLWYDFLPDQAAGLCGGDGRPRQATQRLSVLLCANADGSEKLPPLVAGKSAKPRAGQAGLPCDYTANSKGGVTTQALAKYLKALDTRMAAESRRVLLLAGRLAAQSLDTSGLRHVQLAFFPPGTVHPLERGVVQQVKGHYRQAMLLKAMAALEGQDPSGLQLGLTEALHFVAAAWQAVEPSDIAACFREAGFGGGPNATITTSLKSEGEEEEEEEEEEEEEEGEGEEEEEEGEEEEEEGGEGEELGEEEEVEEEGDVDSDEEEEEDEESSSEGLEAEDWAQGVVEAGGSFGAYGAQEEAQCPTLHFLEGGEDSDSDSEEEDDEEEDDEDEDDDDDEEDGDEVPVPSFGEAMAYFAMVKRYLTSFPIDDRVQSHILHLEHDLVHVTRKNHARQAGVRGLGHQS

B1: 10E8 monoclonal antibody (full-length IgG) (antibody, V domains shown)
VH: EVQLVESGGGLVKPGGSLRLSCSASGFDFDNAWMTWVRQPPGKGLEWVGRITGPGEGWSVDYAAPVEGRFTISRLNSINFLYLEMNNLRMEDSGLYFCARTGKYYDFWSGYPPGEEYFQDWGRGTLVTVSS
VL: SYELTQETGVSVALGRTVTITCRGDSLRSHYASWYQKKPGQAPILLFYGKNNRPSGVPDRFSGSASGNRASLTISGAQAEDDAEYYCSSRDKSGSRLSVFGGGTKLTVL
notes: also called mAb 10E8; wild-type 10E8
**Q.** Does B1 bind [1]?
**A.** Result: binds

**Q.** Does B1 bind [2]?
**A.** Result: binds

**Q.** Does B1 bind [3]?
**A.** Result: no binding

**Q.** Does B1 bind [4]?
**A.** Result: no binding (tested: 50 ug/ml (highest concentration assayed))

**Q.** Does B1 bind (Jo1 antigen)?
**A.** Result: no binding (tested: 50 ug/ml (highest concentration assayed))

**Q.** Does B1 bind (scleroderma 70 antigen)?
**A.** Result: no binding (tested: 50 ug/ml (highest concentration assayed))

**Q.** Does B1 bind (centromere B)?
**A.** Result: no binding (tested: 50 ug/ml (highest concentration assayed))
